# Experimental data from article PMC10076285, “Oncogenic CALR mutant C-terminus mediates dual binding to the thrombopoietin receptor triggering complex dimerization and activation” (Nature Communications, 2023).
# B1: Recombinant human CALR del52 (natural protein)
# chain: EPAVYFKEQFLDGDGWTSRWIESKHKSDFGKFVLSSGKFYGDEEKDKGLQTSQDARFYALSASFEPFSNKGQTLVVQFTVKHEQNIDCGGGYVKLFPNSLDQTDMHGDSEYNIMFGPDICGPGTKKVHVIFNYKGKNVLINKDIRSKDDEFTHLYTLIVRPDNTYEVKIDNSQVESGSLEDDWDFLPPKKIKDPDASKPEDWDERAKIDDPTDSKPEDWDKPEHIPDPDAKKPEDWDEEMDGEWEPPVIQNPEYKGEWKPRQIDNPDYKGTWIHPEIDNPEYSPDPSIYAYDNFGVLGLDLWQVKSGTIFDNFLITNDEAYAEEFGNETWGVTKAAEKQMKDKQDEEQRTRRMMRTKMRMRRMRRTRRKMRRKMSPARPRTSCREACLQGWTEA
# modifications: RED-NHS dye on lysines (in the MST experiment only)
# Target: T1, Recombinant human TpoR extracellular domain D1-D4 with mature N-glycans (human, UniProt P40238 26-489, mature N-glycans (4 N-glycans on the ECD))
# T1 construct: thrombopoietin receptor (TpoR), human, extracellular domain D1-D4, starts at Q26 and ends at T489; details in Supplementary Methods; also called TpoR D1-D4; hTpoR D1-D4; source: Schneider S2 cells, purified; not shown: His tag, C-terminal, kept
# T1 sequence (looked up): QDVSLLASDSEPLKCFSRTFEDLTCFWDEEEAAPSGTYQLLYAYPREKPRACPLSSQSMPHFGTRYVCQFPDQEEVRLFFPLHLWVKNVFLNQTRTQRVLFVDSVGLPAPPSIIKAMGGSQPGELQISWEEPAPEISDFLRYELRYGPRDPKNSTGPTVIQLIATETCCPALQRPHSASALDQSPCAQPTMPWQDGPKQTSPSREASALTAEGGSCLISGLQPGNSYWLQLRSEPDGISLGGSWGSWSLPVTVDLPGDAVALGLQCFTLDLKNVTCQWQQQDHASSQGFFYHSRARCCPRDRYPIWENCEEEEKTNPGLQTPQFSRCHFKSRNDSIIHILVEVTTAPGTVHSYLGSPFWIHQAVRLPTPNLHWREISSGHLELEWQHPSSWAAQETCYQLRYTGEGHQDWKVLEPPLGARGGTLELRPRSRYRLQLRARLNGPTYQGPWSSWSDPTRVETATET
# Test: MST; CALR del52 labelled with RED-NHS at 20 nM; label-free TpoR D1-D4 titrated 0.15 nM to 5 μM; Tris-based MST buffer with 0.01% Tween 20; Monolith NT.115, 40% LED, medium MST power
# Conditions: both partners purified
binder,measurement,value
B1,Kd,~104 nM
